Test results: US20230406935A1 (F STAR THERAPEUTICS, published 2023)

Legend:
[1] = biological target: Human PD-L1 expressed on cells (human, UniProt Q9NZQ7 19-290); assay: cell-based or functional assay
[2] = biological target: T1, Monomeric His-tagged human PD-L1 (Acro biosystems PD1-H5229) (human, UniProt Q9NZQ7 19-238); assay: off-rate on PD-L1, mock mAb^2; instrument not given
T1 construct: also called hPD-L1-his; PD-L1-his
T1 sequence (Q9NZQ7 19-238 limits assumed): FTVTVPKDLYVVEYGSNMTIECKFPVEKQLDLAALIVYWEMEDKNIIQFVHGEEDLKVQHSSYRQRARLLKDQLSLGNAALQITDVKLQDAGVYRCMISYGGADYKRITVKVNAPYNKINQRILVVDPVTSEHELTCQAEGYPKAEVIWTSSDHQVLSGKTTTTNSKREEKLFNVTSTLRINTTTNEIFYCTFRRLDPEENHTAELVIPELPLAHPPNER

Human PD-L1 expressed on cells, sequence (Q9NZQ7 19-290 limits assumed): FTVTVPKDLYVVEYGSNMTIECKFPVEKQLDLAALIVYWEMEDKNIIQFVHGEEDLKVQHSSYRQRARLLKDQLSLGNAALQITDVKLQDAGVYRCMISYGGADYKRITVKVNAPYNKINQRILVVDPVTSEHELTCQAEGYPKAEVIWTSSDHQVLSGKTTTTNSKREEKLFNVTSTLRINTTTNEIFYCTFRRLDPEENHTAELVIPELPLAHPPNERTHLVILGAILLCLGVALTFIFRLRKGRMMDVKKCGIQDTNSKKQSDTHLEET

B1: FS17-33-157AA/HELD1.3 (bispecific antibody)
chain 1: QVQLQESGPGLVRPSQTLSLTCTVSGSTFSGYGVNWVRQPPGRGLEWIGMIWGDGNTDYNSALKSRVTMLVDTSKNQFSLRLSSVTAADTAVYYCARERDYRLDYWGQGSLVTVSSASTKGPSVFPLAPSSKSTSGGTAALGCLVKDYFPEPVTVSWNSGALTSGVHTFPAVLQSSGLYSLSSVVTVPSSSLGTQTYICNVNHKPSNTKVDKKVEPKSCDKTHTCPPCPAPEAAGGPSVFLFPPKPKDTLMISRTPEVTCVVVDVSHEDPEVKFNWYVDGVEVHNAKTKPREEQYNSTYRVVSVLTVLHQDWLNGKEYKCKVSNKALPAPIEKTISKAKGQPREPQVYTLPPSRDEEGYWVSLTCLVKGFYPSDIAVEWESNGEPQYWAKTTPPVLDSDGSFFLYSKLTVSNWRWQLDDFSCSVMHEALHNHYTQKSLSLSPGK
chain 2: DIQMTQSPASLSASVGETVTITCRASGNIHNYLAWYQQKQGKSPQLLVYNAKTLADGVPSRFSGSGSGTQYSLKINSLQPEDFGSYYCQHFWSTPRTFGGGTKLEIKRTVAAPSVFIFPPSDEQLKSGTASVVCLLNNFYPREAKVQWKVDNALQSGNSQESVTEQDSKDSTYSLSSTLTLSKADYEKHKVYACEVTHQGLSSPVTKSFNRGEC
B1 was tested, and the “DO11.10 EC50” value [1] was 0.481 nM and the koff [2] was 0.000559 s⁻¹.

B2: FS17-33-159AA/HELD1.3 (bispecific antibody)
chain 1: QVQLQESGPGLVRPSQTLSLTCTVSGSTFSGYGVNWVRQPPGRGLEWIGMIWGDGNTDYNSALKSRVTMLVDTSKNQFSLRLSSVTAADTAVYYCARERDYRLDYWGQGSLVTVSSASTKGPSVFPLAPSSKSTSGGTAALGCLVKDYFPEPVTVSWNSGALTSGVHTFPAVLQSSGLYSLSSVVTVPSSSLGTQTYICNVNHKPSNTKVDKKVEPKSCDKTHTCPPCPAPEAAGGPSVFLFPPKPKDTLMISRTPEVTCVVVDVSHEDPEVKFNWYVDGVEVHNAKTKPREEQYNSTYRVVSVLTVLHQDWLNGKEYKCKVSNKALPAPIEKTISKAKGQPREPQVYTLPPSRDEHGYWVSLTCLVKGFYPSDIAVEWESNGEPQYWAKTTPPVLDSDGSFFLYSKLTVSNWRWQLDDFSCSVMHEALHNHYTQKSLSLSPGK
chain 2: DIQMTQSPASLSASVGETVTITCRASGNIHNYLAWYQQKQGKSPQLLVYNAKTLADGVPSRFSGSGSGTQYSLKINSLQPEDFGSYYCQHFWSTPRTFGGGTKLEIKRTVAAPSVFIFPPSDEQLKSGTASVVCLLNNFYPREAKVQWKVDNALQSGNSQESVTEQDSKDSTYSLSSTLTLSKADYEKHKVYACEVTHQGLSSPVTKSFNRGEC
For B2, the “DO11.10 EC50” value [1] was 0.263 nM and the koff [2] was 0.000427 s⁻¹.

B3: FS17-33-161AA/HELD1.3 (bispecific antibody)
chain 1: QVQLQESGPGLVRPSQTLSLTCTVSGSTFSGYGVNWVRQPPGRGLEWIGMIWGDGNTDYNSALKSRVTMLVDTSKNQFSLRLSSVTAADTAVYYCARERDYRLDYWGQGSLVTVSSASTKGPSVFPLAPSSKSTSGGTAALGCLVKDYFPEPVTVSWNSGALTSGVHTFPAVLQSSGLYSLSSVVTVPSSSLGTQTYICNVNHKPSNTKVDKKVEPKSCDKTHTCPPCPAPEAAGGPSVFLFPPKPKDTLMISRTPEVTCVVVDVSHEDPEVKFNWYVDGVEVHNAKTKPREEQYNSTYRVVSVLTVLHQDWLNGKEYKCKVSNKALPAPIEKTISKAKGQPREPQVYTLPPSRDELGYWVSLTCLVKGFYPSDIAVEWESNGEPQYWAKTTPPVLDSDGSFFLYSKLTVSNWRWQLDDFSCSVMHEALHNHYTQKSLSLSPGK
chain 2: DIQMTQSPASLSASVGETVTITCRASGNIHNYLAWYQQKQGKSPQLLVYNAKTLADGVPSRFSGSGSGTQYSLKINSLQPEDFGSYYCQHFWSTPRTFGGGTKLEIKRTVAAPSVFIFPPSDEQLKSGTASVVCLLNNFYPREAKVQWKVDNALQSGNSQESVTEQDSKDSTYSLSSTLTLSKADYEKHKVYACEVTHQGLSSPVTKSFNRGEC
B3 was tested, and the “DO11.10 EC50” value [1] was 0.453 nM and the koff [2] was 0.000578 s⁻¹.

B4: FS17-33-163AA/HELD1.3 (bispecific antibody)
chain 1: QVQLQESGPGLVRPSQTLSLTCTVSGSTFSGYGVNWVRQPPGRGLEWIGMIWGDGNTDYNSALKSRVTMLVDTSKNQFSLRLSSVTAADTAVYYCARERDYRLDYWGQGSLVTVSSASTKGPSVFPLAPSSKSTSGGTAALGCLVKDYFPEPVTVSWNSGALTSGVHTFPAVLQSSGLYSLSSVVTVPSSSLGTQTYICNVNHKPSNTKVDKKVEPKSCDKTHTCPPCPAPEAAGGPSVFLFPPKPKDTLMISRTPEVTCVVVDVSHEDPEVKFNWYVDGVEVHNAKTKPREEQYNSTYRVVSVLTVLHQDWLNGKEYKCKVSNKALPAPIEKTISKAKGQPREPQVYTLPPSRDEFGYWVSLTCLVKGFYPSDIAVEWESNGEPQYWAKTTPPVLDSDGSFFLYSKLTVSNWRWQLDDFSCSVMHEALHNHYTQKSLSLSPGK
chain 2: DIQMTQSPASLSASVGETVTITCRASGNIHNYLAWYQQKQGKSPQLLVYNAKTLADGVPSRFSGSGSGTQYSLKINSLQPEDFGSYYCQHFWSTPRTFGGGTKLEIKRTVAAPSVFIFPPSDEQLKSGTASVVCLLNNFYPREAKVQWKVDNALQSGNSQESVTEQDSKDSTYSLSSTLTLSKADYEKHKVYACEVTHQGLSSPVTKSFNRGEC
In the case of B4, the “DO11.10 EC50” value [1] is reported as 0.37 nM and the koff [2] is reported as 0.000372 s⁻¹.

B5: FS17-33-235AA/HELD1.3 (bispecific antibody)
chain 1: QVQLQESGPGLVRPSQTLSLTCTVSGSTFSGYGVNWVRQPPGRGLEWIGMIWGDGNTDYNSALKSRVTMLVDTSKNQFSLRLSSVTAADTAVYYCARERDYRLDYWGQGSLVTVSSASTKGPSVFPLAPSSKSTSGGTAALGCLVKDYFPEPVTVSWNSGALTSGVHTFPAVLQSSGLYSLSSVVTVPSSSLGTQTYICNVNHKPSNTKVDKKVEPKSCDKTHTCPPCPAPEAAGGPSVFLFPPKPKDTLMISRTPEVTCVVVDVSHEDPEVKFNWYVDGVEVHNAKTKPREEQYNSTYRVVSVLTVLHQDWLNGKEYKCKVSNKALPAPIEKTISKAKGQPREPQVYTLPPSRDESGYWVSLTCLVKGFYPSDIAVEWESNGEPQYWAKTTPPVLDSDGSFFLYSKLTVSAWRWQLDDFSCSVMHEALHNHYTQKSLSLSPGK
chain 2: DIQMTQSPASLSASVGETVTITCRASGNIHNYLAWYQQKQGKSPQLLVYNAKTLADGVPSRFSGSGSGTQYSLKINSLQPEDFGSYYCQHFWSTPRTFGGGTKLEIKRTVAAPSVFIFPPSDEQLKSGTASVVCLLNNFYPREAKVQWKVDNALQSGNSQESVTEQDSKDSTYSLSSTLTLSKADYEKHKVYACEVTHQGLSSPVTKSFNRGEC
With B5 the “DO11.10 EC50” value [1] was 0.561 nM and the koff [2] was 0.000709 s⁻¹.

B6: FS17-33-166AA/HELD1.3 (bispecific antibody)
chain 1: QVQLQESGPGLVRPSQTLSLTCTVSGSTFSGYGVNWVRQPPGRGLEWIGMIWGDGNTDYNSALKSRVTMLVDTSKNQFSLRLSSVTAADTAVYYCARERDYRLDYWGQGSLVTVSSASTKGPSVFPLAPSSKSTSGGTAALGCLVKDYFPEPVTVSWNSGALTSGVHTFPAVLQSSGLYSLSSVVTVPSSSLGTQTYICNVNHKPSNTKVDKKVEPKSCDKTHTCPPCPAPEAAGGPSVFLFPPKPKDTLMISRTPEVTCVVVDVSHEDPEVKFNWYVDGVEVHNAKTKPREEQYNSTYRVVSVLTVLHQDWLNGKEYKCKVSNKALPAPIEKTISKAKGQPREPQVYTLPPSRDEYGYWVSLTCLVKGFYPSDIAVEWESNGEPQYWAKTTPPVLDSDGSFFLYSKLTVSNWRWQLDDFSCSVMHEALHNHYTQKSLSLSPGK
chain 2: DIQMTQSPASLSASVGETVTITCRASGNIHNYLAWYQQKQGKSPQLLVYNAKTLADGVPSRFSGSGSGTQYSLKINSLQPEDFGSYYCQHFWSTPRTFGGGTKLEIKRTVAAPSVFIFPPSDEQLKSGTASVVCLLNNFYPREAKVQWKVDNALQSGNSQESVTEQDSKDSTYSLSSTLTLSKADYEKHKVYACEVTHQGLSSPVTKSFNRGEC
With B6 the “DO11.10 EC50” value [1] was 0.238 nM and the koff [2] was 0.000523 s⁻¹.
